US20100285597A1, “DETECTION OF FRAGMENTS OF NECTIN-1 FOR THE DIAGNOSIS OF ALZHEIMER'S DISEASE” (UNIVERSITY OF ROCHESTER, priority 2007, published 2010)
Numbering of substitutions follows the chain as printed. Names may count otherwise.

B1: Δ28-349: nectin-1 ectodomain truncation mutant, V5 and flag tagged (protein)
chain: PTAIIGGVAGSILLVLIVVGGIVVALRRRRHTFKGDYSTKKHVYGNGYSKAGIPQHHPPMAQNLQYPDDSDDEKKAGPLGGSSYEEEEEEEEGGGGGERKVGGPHPKYDEDAKRPYFTVDEAEARQDGYGDRTLGYQYDPEQLDLAENMVSQNDGSFISKKEWYV
modifications: left off: small tags and cut ends
notes: nectin-1 ectodomain truncation mutant, V5 and flag tagged
B2: Δ28-333: nectin-1 ectodomain truncation mutant, V5 and flag tagged (protein)
chain: PYTPSPPEHGRRAGPVPTAIIGGVAGSILLVLIVVGGIVVALRRRRHTFKGDYSTKKHVYGNGYSKAGIPQHHPPMAQNLQYPDDSDDEKKAGPLGGSSYEEEEEEEEGGGGGERKVGGPHPKYDEDAKRPYFTVDEAEARQDGYGDRTLGYQYDPEQLDLAENMVSQNDGSFISKKEWYV
modifications: left off: small tags and cut ends
notes: as for B1
B3: T310A: T310A point mutant of nectin-1 (protein, listed as Homo sapiens)
chain: MARMGLAGAAGRWWGLALGLTAFFLPGVHSQVVQVNDSMYGFIGTDVVLHCSFANPLPSVKITQVTWQKSTNGSKQNVAIYNPSMGVSVLAPYRERVEFLRPSFTDGTIRLSRLELEDEGVYICEFATFPTGNRESQLNLTVMAKPTNWIEGTQAVLRAKKGQDDKVLVATCTSANGKPPSVVSWETRLKGEAEYQEIRNPNGTVTVISRYRLVPSREAHQQSLACIVNYHMDRFKESLTLNVQYEPEVTIEGFDGNWYLQRMDVKLTCKADANPPATEYHWTTLNGSLPKGVEAQNRTLFFKGPINYSLAGAYICEATNPIGTRSGQVEVNITEFPYTPSPPEHGRRAGPVPTAIIGGVAGSILLVLIVVGGIVVALRRRRHTFKGDYSTKKHVYGNGYSKAGIPQHHPPMAQNLQYPDDSDDEKKAGPLGGSSYEEEEEEEEGGGGGERKVGGPHPKYDEDAKRPYFTVDEAEARQDGYGDRTLGYQYDPEQLDLAENMVSQNDGSFISKKEWYV
B4: Y311A: Y311A point mutant of nectin-1 (protein, listed as Homo sapiens)
chain: B3 chain with A313T, Y314A
B5: Δ28-250: nectin-1 ectodomain truncation mutant, V5 and flag tagged (protein)
chain: FDGNWYLQRMDVKLTCKADANPPATEYHWTTLNGSLPKGVEAQNRTLFFKGPINYSLAGTYICEATNPIGTRSGQVEVNITEFPYTPSPPEHGRRAGPVPTAIIGGVAGSILLVLIVVGGIVVALRRRRHTFKGDYSTKKHVYGNGYSKAGIPQHHPPMAQNLQYPDDSDDEKKAGPLGGSSYEEEEEEEEGGGGGERKVGGPHPKYDEDAKRPYFTVDEAEARQDGYGDRTLGYQYDPEQLDLAENMVSQNDGSFISKKEWYV
modifications: left off: small tags and cut ends
notes: as for B1
B6: Δ28-312: nectin-1 ectodomain truncation mutant, V5 and flag tagged (protein)
chain: CEATNPIGTRSGQVEVNITEFPYTPSPPEHGRRAGPVPTAIIGGVAGSILLVLIVVGGIVVALRRRRHTFKGDYSTKKHVYGNGYSKAGIPQHHPPMAQNLQYPDDSDDEKKAGPLGGSSYEEEEEEEEGGGGGERKVGGPHPKYDEDAKRPYFTVDEAEARQDGYGDRTLGYQYDPEQLDLAENMVSQNDGSFISKKEWYV
modifications: left off: small tags and cut ends
notes: as for B1
B7: Δ28-324: nectin-1 ectodomain truncation mutant, V5 and flag tagged (protein)
chain: QVEVNITEFPYTPSPPEHGRRAGPVPTAIIGGVAGSILLVLIVVGGIVVALRRRRHTFKGDYSTKKHVYGNGYSKAGIPQHHPPMAQNLQYPDDSDDEKKAGPLGGSSYEEEEEEEEGGGGGERKVGGPHPKYDEDAKRPYFTVDEAEARQDGYGDRTLGYQYDPEQLDLAENMVSQNDGSFISKKEWYV
modifications: left off: small tags and cut ends
notes: as for B1
B8: Δ28-300: nectin-1 ectodomain truncation mutant, V5 and flag tagged (protein)
chain: GPINYSLAGTYICEATNPIGTRSGQVEVNITEFPYTPSPPEHGRRAGPVPTAIIGGVAGSILLVLIVVGGIVVALRRRRHTFKGDYSTKKHVYGNGYSKAGIPQHHPPMAQNLQYPDDSDDEKKAGPLGGSSYEEEEEEEEGGGGGERKVGGPHPKYDEDAKRPYFTVDEAEARQDGYGDRTLGYQYDPEQLDLAENMVSQNDGSFISKKEWYV
modifications: left off: small tags and cut ends
notes: as for B1

Experiments:
BACE1 [1] = target: T1, BACE1 (Homo sapiens, UniProt P56817); experiment: Co-immunoprecipitation of nectin-1 truncation mutants with BACE1 co-expressed in HEK 293 cells; assay type: binding; conditions: 48 hr. after transfection
T1 construct: expressed in transfected cells; host or cells: HEK 293
T1 sequence (P56817 46-501, species assumed): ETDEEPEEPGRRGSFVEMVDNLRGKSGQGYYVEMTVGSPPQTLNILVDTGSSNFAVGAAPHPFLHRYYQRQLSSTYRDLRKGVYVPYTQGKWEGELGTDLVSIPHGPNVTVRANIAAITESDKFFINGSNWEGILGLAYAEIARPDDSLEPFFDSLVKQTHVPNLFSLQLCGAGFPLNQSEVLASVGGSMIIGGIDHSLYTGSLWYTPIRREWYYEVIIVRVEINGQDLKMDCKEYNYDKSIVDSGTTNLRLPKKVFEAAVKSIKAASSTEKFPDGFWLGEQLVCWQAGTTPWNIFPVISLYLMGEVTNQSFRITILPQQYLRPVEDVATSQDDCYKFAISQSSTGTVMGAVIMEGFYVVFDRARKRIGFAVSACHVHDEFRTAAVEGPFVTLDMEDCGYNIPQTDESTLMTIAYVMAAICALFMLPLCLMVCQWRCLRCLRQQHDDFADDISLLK
Procedure: To define the minimal region within the ectodomain of nectin-1 required for BACE1 interaction, immunoprecipitations between the nectin-1 truncation mutants and BACE1 were performed. BACE1 and full length or truncated nectin-1 were co-expressed in HEK 293 cells and harvested 48 hr. after transfection. To confirm to the efficiencies of the co-transfections, equal volumes of cell lysate were loaded on SDS-PAGE gels and analyzed by Western blot. Transfection efficiency was similar for nectin-1 and its derivates (FIG. 10A) and BACE1 (FIG. 10B). Immunoprecipitation was performed with a nectin-1 cytoplasmic specific antibody and precipitates were analyzed on two separate 10% SDS-PAGE. Western blots were probed with anti-nectin-1 (FIG. 10C) or anti-BACE1 (FIG. 10D) antibodies. The nectin-1 antibody directly immunoprecipitated the respective nectin-1 polypeptides and processed CTFs (FIG. 10C). Furthermore, BACE1, both monomer and dimer, was immunoprecipitated by the nectin-1 antibody, confirming the association of BACE1 with nectin-1.

BACE1 [2] = target: T1, BACE1; experiment: Co-immunoprecipitation of nectin-1 point mutants with BACE1 co-expressed in HEK 293 cells; assay type: binding; conditions: 48 hr. after transfection
Procedure: To express how these point mutations affect the association of nectin-1 with BACE1, physical association of the mutants was examined by immunoprecipitation. We co-expressed BACE1 and nectin-1 or one of the cleavage refractory point mutants in HEK 293 cells. Cells were harvested and lysed in lysis buffer 48 hr. after transfection. To confirm the co-transfection efficiency of nectin-1 or it derivatives and BACE1, equal volumes of cell lysates were analyzed by 10% SDS-PAGE followed by Western blotting. Transfection efficiencies for nectin-1 and derivatives and BACE1 were similar in each sample (FIG. 12A—nectin-1, FIG. 12B—BACE1). Co-expression of nectin-1 with BACE1 increased the amount of CTF bands compared to nectin-1 alone (FIG. 12A, lanes 3 and 4).
Immunoprecipitation was performed using a C-terminal specific nectin-1 antibody. […] The intensities of nectin-1 CTF bands were much stronger when nectin-1 was co-expressed with BACE1. BACE1 was also detected in nectin-1 complexes (FIG. 12D).

[3] = tested on: processing of wild type nectin-1; experiment: Co-transfection of nectin-1 mutants with wild-type nectin-1 in HEK 293 cells, Western blot of CTF bands; assay type: cell-based; conditions: 0.5 μg wild-type nectin-1 plasmid, 24 hr. post-transfection
Procedure: Mutants T310A and Y311A were tested to see if they would interfere with the processing of wild type nectin-1. HEK 293 cells were co-transfected with 0.5 μg of a plasmid containing wild-type nectin-1 and with a plasmid containing no insert (control), green fluorescent protein (GFP), nectin-1 T310A or nectin-1 Y311A. Co transfection efficiency was approximately 85%. Cells were harvested 24 hr. post-transfection and samples were analyzed on a 12% SDS-PAGE gel. […] Co-transfection with vector alone or GFP had no effect on nectin-1 processing. […] The residual CTF bands detected in the T310A and Y311A samples are likely due to the 15% of the cell population that received only the wild type nectin-1 construct.

| Molecule | association with BACE1 (co-immunoprecipitation with nectin-1 antibody) (BACE1 [1]) | intensity of BACE1 bands co-precipitated, compared with wild type nectin-1 (BACE1 [2]) | production of CTF bands of co-transfected wild type nectin-1 [3] |
| --- | --- | --- | --- |
| B1 | did not associate with BACE1 | – | – |
| B2 | Association with BACE1 was also detected | – | – |
| B3 | – | much greater than that precipitated by wild type nectin-1 | substantially reduced |
| B4 | – | much greater than that precipitated by wild type nectin-1 | substantially reduced |
| B5 | interacted with BACE1 very strongly | – | – |
| B6 | Association with BACE1 was also detected | – | – |
| B7 | Association with BACE1 was also detected | – | – |
| B8 | interacted with BACE1 very strongly | – | – |
